In publication PMC3195632 one finds binding signal (% shifted (H1-shifted band)) data, which are given here for 1 substance.

The data set concerns His6-H1.4 (unphosphorylated) (human). Briefly: EMSA. Background: Mobility shift assays separate free from complexed probe on a gel.

Regarding 216-bp 601 mononucleosome, the binding signal (% shifted (H1-shifted band)) was found to be 35.9.
